Source: US20050170442A1

Biological target: Biotin-labeled fluorescent peptide …(S*)PDK-(5-FAM)
Test: cell-based or functional assay

EC50 of enzyme titration (TR-FRET ratio, 400 nM substrate, 200 µM ATP)	Substance
0.025 µg/mL	GSK3α, rHuman (from UniProt P49840 1-483) (enzyme)
0.245 µg/mL	GSK3β, rHuman (from UniProt P49841 1-420) (enzyme)
